Assay results taken from article PMC8053096 (Nucleic Acids Research, 2021).

B1: full-length Escherichia coli Lhr (enzyme, Escherichia coli K-12 MG1655)
chain: SEFELRRQACMADNPDPSSLLPDVFSPATRDWFLRAFKQPTAVQPQTWHVAARSEHALVIAPTGSGKTLAAFLYALDRLFREGGEDTREAHKRKTSRILYISPIKALGTDVQRNLQIPLKGIADERRRRGETEVNLRVGIRTGDTPAQERSKLTRNPPDILITTPESLYLMLTSRARETLRGVETVIIDEVHAVAGSKRGAHLALSLERLDALLHTSAQRIGLSATVRSASDVAAFLGGDRPVTVVNPPAMRHPQIRIVVPVANMDDVSSVASGTGEDSHAGREGSIWPYIETGILDEVLRHRSTIVFTNSRGLAEKLTARLNELYAARLQRSPSIAVDAAHFESTSGATSNRVQSSDVFIARSHHGSVSKEQRAITEQALKSGELRCVVATSSLELGIDMGAVDLVIQVATPLSVASGLQRIGRAGHQVGGVSKGLFFPRTRRDLVDSAVIVECMFAGRLENLTPPHNPLDVLAQQTVAAAAMDALQVDEWYSRVRRAAPWKDLPRRVFDATLDMLSGRYPSGDFSAFRPKLVWNRETGILTARPGAQLLAVTSGGTIPDRGMYSVLLPEGEEKAGSRRVGELDEEMVYESRVNDIITLGATSWRIQQITRDQVIVTPAPGRSARLPFWRGEGNGRPAELGEMIGDFLHLLADGAFFSGTIPPWLAEENTIANIQGLIEEQRNATGIVPGSRHLVLERCRDEIGDWRIILHSPYGRRVHEPWAVAIAGRIHALWGADASVVASDDGIVARIPDTDGKLPDAAIFLFEPEKLLQIVREAVGSSALFAARFRECAARALLMPGRTPGHRTPLWQQRLRASQLLEIAQGYPDFPVILETLRECLQDVYDLPALERLMRRLNGGEIQISDVTTTTPSPFATSLLFGYVAEFMYQSDAPLAERRASVLSLDSELLRNLLGQVDPGELLDPQVIRQVEEELQRLAPGRRAKGEEGLFDLLRELGPMTVEDLAQRHTGSSEEVASYLENLLAVKRIFPAMISGQERLACMDDAARLRDALGVRLPESLPEIYLHRVSYPLRDLFLRYLRAHALVTAEQLAHEFSLGIAIVEEQLQQLREQGLVMNLQQDIWVSDEVFRRLRLRSLQAAREATRPVAATTYARLLLERQGVLPATDGSPALFASTSPGVYEGVDGVMRVIEQLAGVGLPASLWESQILPARVRDYSSEMLDELLATGAVIWSGQKKLGEDDGLVALHLQEYAAESFTPAEADQANRSALQQAIVAVLADGGAWFAQQISQRIRDKIGESVDLSALQEALWALVWQGVITSDIWAPLRALTRSSSNARTSTRRSHRARRGRPVYAQPVSPRVSYNTPNLAGRWSLLQVEPLNDTERMLALAENMLDRYGIISRQAVIAENIPGGFPSMQTLCRSMEDSGRIMRGRFVEGLGGAQFAERLTIDRLRDLATQATQTRHYTPVALSANDPANVWGNLLPWPAHPATLVPTRRAGALVVVSGGKLLLYLAQGGKKMLVWQEKEELLAPEVFHALTTALRREPRLRFTLTEVNDLPVRQTPMFTLLREAGFSSSPQGLDWG
B2: MsmLhr C-terminal domain, MsmLhr-(863-1507) (domain or fragment, Mycobacterium smegmatis, UniProt A0QT91 863-1507, looked up)
chain: SPLAERRAAALALDTVLLSELLGRVELRELLDPAVVASTSAQLQHLTPERAARDAEGVADLLRLLGPLTEADIAQRCTADNIGAWLDGLHAAKRALPVTYAGQTWWAAVEDIGLLRDGIGVPVPVGVPAAFTESASDPLGDLIGRYARTRGPFTTEQTAARFGLGVRVASDVLSRMAVDGRLIRGEFAADLSGEQWCDAQVLKILRRRSLAALRAQVEPVSTDAYARFLPSWQHVGSTNTTGIDGLATVIEQLAGVPIPASAVESLVFPQRVRDYQPAMLDELLASGEVMWSGAGQIGNGDGWVAFHLADTAPLTLTHGAEIEFTDTHRVILETLGHGGAYFFRQLTDGTVEGTAGQELKQALWELIWAGWVTGDTFAPVRAVLSGPRRSGAPAHRQRQRPPRLSRYSVAHAQTRGTDPTVSGRWSALPAAEPDSTVRAHFQAELLLGRHGVLTKGAVGAEGVPGGFATLYKVLSTFEDAGRCQRGYFVESLGGAQFAVASTVDRLRSYLDNVDPERPEYHAVVLAATDPANPYGAALGWPTDSEAHRPGRKAGALVALVDGRLVWFLERGGRSLLSFGADADAQRAAAGALTDLVSAGRIPSLLVERINGVAVLDPDVDAERAVVQDALLGAGLSRTPRGLRLR

Target: the molecule itself
Assay: SEC

Row | Protein | binding result
1 | B1 | binds
2 | B2 | binds
